In publication PMC4664405:

Target: Flag-tagged PDI-WT (UniProt P07237)
Assay: co-IP; Flag-M2 affinity resin on COS-7 lysates (50 mM TrisHCl, 150 mM NaCl); PDI-Flag co-expressed with one sGC subunit or one α construct; Western blot, densitometry of bound over input

Chain of Flag-tagged PDI-WT (P07237 18-508): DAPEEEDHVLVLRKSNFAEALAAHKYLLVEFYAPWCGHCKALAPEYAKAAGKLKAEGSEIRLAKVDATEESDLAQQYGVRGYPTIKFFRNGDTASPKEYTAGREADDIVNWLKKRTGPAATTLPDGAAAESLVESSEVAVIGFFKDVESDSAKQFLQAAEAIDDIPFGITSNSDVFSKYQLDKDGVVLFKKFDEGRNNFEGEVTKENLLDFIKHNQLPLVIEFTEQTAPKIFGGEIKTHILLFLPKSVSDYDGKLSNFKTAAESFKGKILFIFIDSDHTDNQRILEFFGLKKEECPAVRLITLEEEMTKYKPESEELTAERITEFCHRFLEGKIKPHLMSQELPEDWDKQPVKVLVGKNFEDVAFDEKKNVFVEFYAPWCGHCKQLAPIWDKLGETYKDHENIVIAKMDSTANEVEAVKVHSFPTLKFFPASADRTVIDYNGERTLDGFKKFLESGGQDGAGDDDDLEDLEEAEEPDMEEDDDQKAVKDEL

Row | Substance | bound vs. input (densitometry) | sGC bound over input (densitometry)
1 | sGC α WT, expressed in COS-7 cells (from UniProt Q02108 1-690) (enzyme) | 1.01 | 1.08
2 | sGC β WT, expressed in COS-7 cells (from UniProt Q02153 1-619) (enzyme) | – | 0.74
